Results published in the Human Domainome abundance scans (Beltran et al. 2025).
± gives the uncertainty stated by the source.

B1: POU domain, class 4, transcription factor 2, residues 256 to 327; numbered along this chain, Q12837 (parent)
chain: RDLEAFAERFKQRRIKLGVTQADVGSALANLKIPGVGSLSQSTICRFESLTLSHNNMIALKPILQAWLEEAE

Variants of: B1
Test: abundance fitness (aPCA) (normalised: wild type 0, dead -1); higher = more abundant; growth selection in yeast, the domain comes from the species named
Details: Homo sapiens

Variant | abundance fitness
RDLEAFAERFKQRRIKLGVTQADVGSALANLKIPGVGSLSQSTIWRFESLTLSHNNMIALKPILQAWLEEAE [C45W] | -0.431 ± 0.11
RDLEAFAERFKQRRIKLGVTQADVGSALANLKIPGVGSLSQSTISRFESLTLSHNNMIALKPILQAWLEEAE [C45S] | 0.065 ± 0.059
RDLEAFAERFKQRRIKLGVTQADVGSALANLKIPGVGSLSQSTIYRFESLTLSHNNMIALKPILQAWLEEAE [C45Y] | 0.26 ± 0.39
RDLEAFAERFKQRRIKLGVTQADVGSALANLKIPGVGSLSQSTIVRFESLTLSHNNMIALKPILQAWLEEAE [C45V] | -0.004 ± 0.084
RDLEAFAERFKQRRIKLGVTQADVGSALANLKIPGVGSLSQSTIQRFESLTLSHNNMIALKPILQAWLEEAE [C45Q] | 0.119 ± 0.11
RDLEAFAERFKQRRIKLGVTQADVGSALANLKIPGVGSLSQSTIRRFESLTLSHNNMIALKPILQAWLEEAE [C45R] | -0.008 ± 0.059
RDLEAFAERFKQRRIKLGVTQADVGSALANLKIPGVGSLSQSTITRFESLTLSHNNMIALKPILQAWLEEAE [C45T] | -0.161 ± 0.11
RDLEAFAERFKQRRIKLGVTQADVGSALANLKIPGVGSLSQSTICCFESLTLSHNNMIALKPILQAWLEEAE [R46C] | -0.059 ± 0.082
RDLEAFAERFKQRRIKLGVTQADVGSALANLKIPGVGSLSQSTICAFESLTLSHNNMIALKPILQAWLEEAE [R46A] | -0.027 ± 0.11
RDLEAFAERFKQRRIKLGVTQADVGSALANLKIPGVGSLSQSTICLFESLTLSHNNMIALKPILQAWLEEAE [R46L] | -0.22 ± 0.062
RDLEAFAERFKQRRIKLGVTQADVGSALANLKIPGVGSLSQSTICHFESLTLSHNNMIALKPILQAWLEEAE [R46H] | -0.118 ± 0.2
RDLEAFAERFKQRRIKLGVTQADVGSALANLKIPGVGSLSQSTICMFESLTLSHNNMIALKPILQAWLEEAE [R46M] | -0.12 ± 0.11
RDLEAFAERFKQRRIKLGVTQADVGSALANLKIPGVGSLSQSTICWFESLTLSHNNMIALKPILQAWLEEAE [R46W] | -0.567 ± 0.16
RDLEAFAERFKQRRIKLGVTQADVGSALANLKIPGVGSLSQSTICKFESLTLSHNNMIALKPILQAWLEEAE [R46K] | 0.033 ± 0.12
RDLEAFAERFKQRRIKLGVTQADVGSALANLKIPGVGSLSQSTICVFESLTLSHNNMIALKPILQAWLEEAE [R46V] | -0.899 ± 0.22
RDLEAFAERFKQRRIKLGVTQADVGSALANLKIPGVGSLSQSTICDFESLTLSHNNMIALKPILQAWLEEAE [R46D] | 0.094 ± 0.14
RDLEAFAERFKQRRIKLGVTQADVGSALANLKIPGVGSLSQSTICQFESLTLSHNNMIALKPILQAWLEEAE [R46Q] | 0.122 ± 0.095
RDLEAFAERFKQRRIKLGVTQADVGSALANLKIPGVGSLSQSTICPFESLTLSHNNMIALKPILQAWLEEAE [R46P] | -1.01 ± 0.13
RDLEAFAERFKQRRIKLGVTQADVGSALANLKIPGVGSLSQSTICSFESLTLSHNNMIALKPILQAWLEEAE [R46S] | 0.076 ± 0.045

Variant | abundance fitness
RDLEAFAERFKQRRIKLGVTQADVGSALANLKIPGVGSLSQSTICTFESLTLSHNNMIALKPILQAWLEEAE [R46T] | -0.531 ± 0.19
RDLEAFAERFKQRRIKLGVTQADVGSALANLKIPGVGSLSQSTICRFESSTLSHNNMIALKPILQAWLEEAE [L50S] | 0.012 ± 0.066
RDLEAFAERFKQRRIKLGVTQADVGSALANLKIPGVGSLSQSTICRFESATLSHNNMIALKPILQAWLEEAE [L50A] | 0.005 ± 0.061
RDLEAFAERFKQRRIKLGVTQADVGSALANLKIPGVGSLSQSTICRFESMTLSHNNMIALKPILQAWLEEAE [L50M] | -0.003 ± 0.15
RDLEAFAERFKQRRIKLGVTQADVGSALANLKIPGVGSLSQSTICRFESETLSHNNMIALKPILQAWLEEAE [L50E] | -0.322 ± 0.24
RDLEAFAERFKQRRIKLGVTQADVGSALANLKIPGVGSLSQSTICRFESNTLSHNNMIALKPILQAWLEEAE [L50N] | 0.161 ± 0.076
RDLEAFAERFKQRRIKLGVTQADVGSALANLKIPGVGSLSQSTICRFESGTLSHNNMIALKPILQAWLEEAE [L50G] | 0.06 ± 0.046
RDLEAFAERFKQRRIKLGVTQADVGSALANLKIPGVGSLSQSTICRFESFTLSHNNMIALKPILQAWLEEAE [L50F] | -0.088 ± 0.11
RDLEAFAERFKQRRIKLGVTQADVGSALANLKIPGVGSLSQSTICRFESPTLSHNNMIALKPILQAWLEEAE [L50P] | -0.867 ± 0.12
RDLEAFAERFKQRRIKLGVTQADVGSALANLKIPGVGSLSQSTICRFESHTLSHNNMIALKPILQAWLEEAE [L50H] | -0.057 ± 0.081
RDLEAFAERFKQRRIKLGVTQADVGSALANLKIPGVGSLSQSTICRFESCTLSHNNMIALKPILQAWLEEAE [L50C] | -0.029 ± 0.069
RDLEAFAERFKQRRIKLGVTQADVGSALANLKIPGVGSLSQSTICRFESTTLSHNNMIALKPILQAWLEEAE [L50T] | -0.147 ± 0.094
RDLEAFAERFKQRRIKLGVTQADVGSALANLKIPGVGSLSQSTICRFESITLSHNNMIALKPILQAWLEEAE [L50I] | -0.361 ± 0.18
RDLEAFAERFKQRRIKLGVTQADVGSALANLKIPGVGSLSQSTICRFESDTLSHNNMIALKPILQAWLEEAE [L50D] | -0.196 ± 0.13
RDLEAFAERFKQRRIKLGVTQADVGSALANLKIPGVGSLSQSTICRFESKTLSHNNMIALKPILQAWLEEAE [L50K] | -0.128 ± 0.25
RDLEAFAERFKQRRIKLGVTQADVGSALANLKIPGVGSLSQSTICRFESRTLSHNNMIALKPILQAWLEEAE [L50R] | -0.077 ± 0.055
RDLEAFAERFKQRRIKLGVTQADVGSALANLKIPGVGSLSQSTICRTESLTLSHNNMIALKPILQAWLEEAE [F47T] | -0.922 ± 0.14
RDLEAFAERFKQRRIKLGVTQADVGSALANLKIPGVGSLSQSTICRNESLTLSHNNMIALKPILQAWLEEAE [F47N] | -0.871 ± 0.37
